Results reported in the supplement of paper PMC12042874.
± gives the uncertainty stated by the source.

Assay: amyloid nucleation score (Sup35N fusion, yeast selection) (log enrichment); library NNK1; higher = more nucleation; inactive = no reads after selection
In short: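 Plasmid inserts were Illumina-sequenced at input and output from psi-negative yeast expressing Sup35N fused to peptides of 20 random codons. The yeast were induced with 100 μM copper sulfate for 24 hours and grown 7 days at 30°C on medium lacking adenine and uracil, and sequences with under 100 input reads were excluded. Nucleation score is the DiMSum log enrichment of output over input reads, centred on the mode score of non-aggregating sequences.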

Point of comparison: GDLSLRLLG, amyloid nucleation score 0.419 ± 0.66. Against it:
- LCCKVLLALSAPGQFSVHNA — within error, -0.621 ± 1.4
- SMHSLGSHEGSRRIPGLSFD — within error, -0.007 ± 1.2
- AGRSWSCMLVTVWSRTRVPL — within error, 0.351 ± 0.6
- NRLATLVDVTVMQSNTFELL — within error, 0.748 ± 0.35
- KTGFYGFMVGM — higher, 4.54 ± 0.063
- YVYRFNFLNFVW — higher, 1.93 ± 0.12
- IELPRFYILVNFYGTLSLSL — higher, 3.83 ± 0.12
- SLLLLMGALSHGMRLFKGSS — within error, 0.268 ± 0.82
- YFFRKLSGSWASSFLVAPMV — within error, 0.444 ± 0.59
- SMYSNRHHDWFR — within error, -0.412 ± 1.4
- YTVTCYCGSDTWSKMLAKVF — within error, -1.16 ± 2.4
- LLIEWRLDSGWCTTGSENRD — within error, -0.347 ± 0.4
- HFGDGILLI — within error, -1.21 ± 1.7
- RGNPNTVGIITWCDDVFFFQ — higher, 3.07 ± 0.25
- LHQVMAWCMGEKWAETRSPW — within error, -0.703 ± 2.1
- VYASGWAQISVTGGTWLRGD — within error, 0.131 ± 0.42
- GQWGVVHIQQGVQYCATIRG — within error, 0.331 ± 0.69
- WMKVLVPFRMEAASGSLFCS — within error, -1.22 ± 1.3
- NRIISLCSLSCDYLNLDWCI — higher, 7.13 ± 0.08
- TRQRKDGYADRMQYNSPLRR — within error, 0.342 ± 0.6
- QSNLYLLALELAYECYSGCH — within error, 0.049 ± 0.72
- LRLPSRAFEGFRREAAWGST — within error, 1.23 ± 0.76
- TELGVSPIAKRRNSVLDHAL — within error, -0.449 ± 1.1
- LIHVRCSLVQCANSELQGAG — higher, 2.65 ± 0.28
- PTYIKLILTAHYLSEFRSNV — within error, 1.02 ± 0.17
- YQKDWFDMHEYYRPM — within error, 1.42 ± 0.64
- CRLIVISTTYIIKAQKCLIG — within error, -0.512 ± 0.33
- RTDWYGEDWHYV — within error, -1.31 ± 1.4
- SLYTKWKSILPNWVFVCIAL — lower, -1.35 ± 0.38
- GSSQWFRQVLYFRQSPGWGS — within error, -0.33 ± 0.65
- SHGVVYGFIMLVMEEYLRQQ — within error, -0.376 ± 0.27
- VTYSYASGDGPDSLWCT — within error, -0.026 ± 0.84
- HYVKVRFRNRSVVYALIGGV — within error, 0.752 ± 0.54
- RFWINIPKYSTIL — within error, -0.751 ± 1.7
- SGSGRCTNLSCVGGFGKWLM — within error, 0.714 ± 0.6
- AIFVCNH — within error, 0.229 ± 0.5
- HIKVHKFVGENWETFSRADM — within error, -0.026 ± 1.7
- SRAAFVSSKPYMSWGVTYVH — within error, -0.792 ± 1.3
- WSTGDVLVLVKLYYAFMCVI — lower, -0.819 ± 0.27
- LMSLIMI — within error, 0.032 ± 0.44
- LDASRNFVLLFS — within error, 0.784 ± 0.34
- IFCVMVLSWSAVDPALSVA — within error, -1.03 ± 0.81
- IASLRIIDSIQFISVNSCYG — within error, 0.356 ± 0.4
- HSCYLANCLSRVQGSKRDTE — lower, -0.911 ± 0.54
- TMFHLWNFGCVALVR — within error, -0.104 ± 0.34
- MAVERLGSQVERDIRGWWRV — within error, 0.063 ± 0.59
- RFLSQNGNLIPGRRLPTGVR — within error, 0.54 ± 0.54
- GWQRSRVAVAPVVVTQSCGV — within error, -0.671 ± 1.6
- VGRFLSYGRWLA — within error, -0.393 ± 0.42
- SLRKKVSSVCSC — within error, 0.838 ± 0.54
- WMDTLVSIGRGGMLRVSCSG — within error, 0.519 ± 0.49
- TNVKQQACRLRSS — higher, 4.83 ± 0.063
- TYFSDLVRRRRCKAGNVWFL — within error, 1.58 ± 0.74
- TTTCMRYGLIVC — higher, 1.7 ± 0.52
- CLVELVYFCGLSVGQ — within error, -0.17 ± 0.85
- LYFITTM — within error, 1.18 ± 0.59
- GSIQDVIRLAIDVGRAALTE — within error, 0.684 ± 0.55
- AVNYIADFGTVDRCCITFPL — within error, 0.645 ± 0.4
- VYVSFTRNCVGCIGLD — higher, 4.62 ± 0.061
- LCVRAIVRSCNSWKKYSFPR — within error, 0.031 ± 1
- DGRRTDWVLCNGARIRTCYD — within error, -0.316 ± 0.44
- RWPDQCLLMLWMVLLFPSWE — lower, -0.552 ± 0.28
- IENDGMSRAFC — within error, 0.635 ± 0.67
- CILGWKYLDVVYDQRRLRCG — within error, 0.939 ± 0.46
- RFKRWGKR — within error, 0.39 ± 0.41
- DCQNYLSFVN — within error, -1.29 ± 2.4
- TYYGVSPDTASNAACLYPRH — within error, -0.746 ± 1.9
- SLEWFSRWSN — within error, 1.15 ± 0.37
- VYTDLKGENAGGIIYCGIGS — within error, 0.445 ± 0.26
- RPNSYGSLWRERIGLIYTYE — within error, 1.33 ± 0.79
- WWSRTLSLLE — within error, -0.035 ± 0.32
- TLRMGESCFKWWYQIFIQLF — within error, 0.275 ± 0.93
- VNHIWWEFQGVSAYSNFRRD — within error, -0.417 ± 1.5
- WGAHCGWQF — within error, -0.749 ± 1.3
- VTIHETCRVWRFVRTDRRWG — within error, 0.553 ± 0.46
- VFIVELNFMLRN — higher, 4.69 ± 0.055
- CGAELRIGGCSGPGGMFQTR — within error, 0.031 ± 0.27
- YLIVVLCRRCLMGSGYNRIG — within error, -0.368 ± 0.97
- WICQTGRFNELTHRCCVWFF — within error, 0.762 ± 0.47

For MKMNDYMGVRDWVHLIDVCS, the amyloid nucleation score was “inactive”.
In the case of CRACRLRVIFNELMVGWVMF, the amyloid nucleation score is reported as “inactive”.
For QNPFSTSHIVRSLLCLNDVI, the amyloid nucleation score was “inactive”.
For PNIRHYVYNHN, the amyloid nucleation score was “inactive”.
In the case of PFNKKFRYVMPRLQRTHVFM, the amyloid nucleation score is reported as “inactive”.
